Laboratory results from IntAct's records for PubMed 20404169.

B1: Protein kinase C and casein kinase substrate in neurons protein 1 (Mus musculus), Q61644 (parent)
chain: MSGSYDEASEEITDSFWEVGNYKRTVKRIDDGHRLCNDLMSCVQERAKIEKAYAQQLTDWAKRWRQLIEKGPQYGSLERAWGAMMTEADKVSELHQEVKNSLLNEDLEKVKNWQKDAYHKQIMGGFKETKEAEDGFRKAQKPWAKKMKELEAAKKAYHLACKEERLAMTREMNSKTEQSVTPEQQKKLVDKVDKCRQDVQKTQEKYEKVLEDVGKTTPQYMEGMEQVFEQCQQFEEKRLVFLKEVLLDIKRHLNLAENSSYMHVYRELEQAIRGADAQEDLRWFRSTSGPGMPMNWPQFEEWNPDLPHTTAKKEKQPKKAEGATLSNATGAVESTSQAGDRGSVSSYDRGQTYATEWSDDESGNPFGGNEANGGANPFEDDAKGVRVRALYDYDGQEQDELSFKAGDELTKLGEEDEQGWCRGRLDSGQLGLYPANYVEAI
partner: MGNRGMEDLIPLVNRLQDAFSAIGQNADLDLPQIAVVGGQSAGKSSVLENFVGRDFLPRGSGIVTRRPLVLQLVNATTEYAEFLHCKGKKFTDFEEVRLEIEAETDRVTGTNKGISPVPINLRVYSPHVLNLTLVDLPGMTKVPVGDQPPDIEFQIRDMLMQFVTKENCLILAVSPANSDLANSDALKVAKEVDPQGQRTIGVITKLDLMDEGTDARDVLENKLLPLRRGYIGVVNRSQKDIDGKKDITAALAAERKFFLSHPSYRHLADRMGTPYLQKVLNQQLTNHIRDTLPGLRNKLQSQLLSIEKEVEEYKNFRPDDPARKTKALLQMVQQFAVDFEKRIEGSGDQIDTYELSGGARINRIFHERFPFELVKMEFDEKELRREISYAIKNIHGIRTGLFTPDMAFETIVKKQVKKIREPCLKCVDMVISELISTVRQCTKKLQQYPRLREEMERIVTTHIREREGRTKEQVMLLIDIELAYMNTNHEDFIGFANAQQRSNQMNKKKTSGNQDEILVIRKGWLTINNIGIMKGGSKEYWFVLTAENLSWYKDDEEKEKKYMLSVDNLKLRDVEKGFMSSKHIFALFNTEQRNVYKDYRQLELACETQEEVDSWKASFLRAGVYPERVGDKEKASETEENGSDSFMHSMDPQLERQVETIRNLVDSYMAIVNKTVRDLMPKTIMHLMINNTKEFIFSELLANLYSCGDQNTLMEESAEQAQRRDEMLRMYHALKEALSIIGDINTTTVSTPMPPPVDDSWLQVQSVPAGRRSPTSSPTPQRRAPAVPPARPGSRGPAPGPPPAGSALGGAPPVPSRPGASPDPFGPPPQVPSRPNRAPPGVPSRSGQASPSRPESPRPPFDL

Variants of: B1
Conditions: with dyn1_human DNM1, Q05193

effect of a mutation on the interaction	Variant
decreasing interaction strength	D394R;E400R
decreasing interaction	E400R
decreasing interaction	P434L
